Key:
[1] = target: HLA-C*03:03; assay: IEDB peptide-MHC binding, purified MHC/direct/fluorescence; filed as Kd, often an IC50 or EC50 that approximates it; ≥ and ≤ were set here for values at or beyond the usual limits of such assays
[2] = target: HLA-C*12:03; assay: as above
[3] = target: HLA-A*02:01; assay: IEDB peptide-MHC binding, purified MHC/competitive/fluorescence; filed as Kd, often an IC50 or EC50 that approximates it; ≥ and ≤ were set here for values at or beyond the usual limits of such assays
[4] = target: HLA-A*02:03; assay: as above
[5] = target: HLA-A*02:06; assay: as above; settings: source organism: Human immunodeficiency virus 1
[6] = target: HLA-A*30:01; assay: as above; settings: source organism: Human immunodeficiency virus 1
[7] = target: HLA-A*31:01; assay: as above; settings: source organism: Human immunodeficiency virus 1
[8] = target: HLA-B*39:01; assay: as above
[9] = target: HLA-A*23:01; assay: as above; settings: source organism: Rickettsia sibirica 246
[10] = target: HLA-B*07:02; assay: as above
[11] = target: HLA-B*35:01; assay: as above
[12] = target: HLA-B*51:01; assay: as above
[13] = target: HLA-A*02:12; assay: as above
[14] = target: HLA-A*02:19; assay: as above
[15] = target: HLA-A*03:01; assay: as above
[16] = target: HLA-A*26:01; assay: as above
[17] = target: HLA-A*29:02; assay: as above
[18] = target: HLA-A*68:02; assay: as above
[19] = target: HLA-A*69:01; assay: as above
[20] = target: HLA-B*15:01; assay: as above
[21] = target: HLA-B*27:03; assay: as above
[22] = target: HLA-B*46:01; assay: as above
[23] = target: HLA-B*57:01; assay: as above
[24] = target: HLA-B*08:01; assay: as above; settings: source organism: Yersinia pestis Nepal516
[25] = target: HLA-B*18:01; assay: as above
[26] = target: HLA-A*02:03; assay: IEDB peptide-MHC binding, purified MHC/direct/fluorescence; filed as Kd, often an IC50 or EC50 that approximates it; ≥ and ≤ were set here for values at or beyond the usual limits of such assays; settings: source organism: Orthohantavirus andesense
[27] = target: HLA-A*02:11; assay: as above; settings: source organism: Orthohantavirus andesense
[28] = target: HLA-A*02:12; assay: as above; settings: source organism: Orthohantavirus andesense
[29] = target: HLA-A*02:16; assay: as above; settings: source organism: Orthohantavirus andesense
[30] = target: HLA-A*02:19; assay: as above; settings: source organism: Orthohantavirus andesense
[31] = target: HLA-A*03:01; assay: as above; settings: source organism: Orthohantavirus andesense
[32] = target: HLA-A*68:02; assay: as above; settings: source organism: Orthohantavirus andesense
[33] = target: HLA-A*24:03; assay: IEDB peptide-MHC binding, purified MHC/competitive/fluorescence; filed as Kd, often an IC50 or EC50 that approximates it; ≥ and ≤ were set here for values at or beyond the usual limits of such assays
[34] = target: HLA-A*02:11; assay: as above; settings: source organism: Entamoeba histolytica HM-1:IMSS
[35] = target: HLA-B*15:17; assay: as above; settings: source organism: Vibrio parahaemolyticus AQ3810
[36] = source organism: Vaccinia virus WR
[37] = source organism: Human immunodeficiency virus 1
[38] = source organism: Bacillus cereus G9241
[39] = source organism: Entamoeba dispar SAW760
[40] = source organism: Yersinia pestis Nepal516
[41] = source organism: Orthohantavirus andesense
[42] = source organism: Mycobacterium avium
[43] = source organism: Entamoeba histolytica HM-1:IMSS
[44] = source organism: Giardia lamblia ATCC 50803
[45] = source organism: Vibrio parahaemolyticus AQ3810

In the case of FLRDNLYHV, the Kd [1, 36] is reported as no less than 20 µM, the Kd [2, 36] is reported as 0.029 µM and the Kd [3, 36] is reported as 0.0016 µM.
EKLKSLYNTI gave a Kd [4, 37] of 0.0239 µM, a Kd [5] of 3.71 µM and a Kd [6] of 0.072 µM. It also gave a Kd [7] of 4.47 µM and a Kd [8, 37] of 0.747 µM.
In the case of RMAATAQVL, the Kd ([1]; source organism: Mycobacterium tuberculosis C) is reported as 0.012 µM.
Sequence KFVAGAMNI has a Kd [9] of 0.0117 µM.
For IPLSILLTL, the Kd [10, 38] was 0.028 µM, the Kd [11, 38] was 0.0004 µM and the Kd [12, 38] was 0.954 µM.
KDGTLFYCY showed a Kd [4, 39] of no less than 20 µM, a Kd [13, 39] of no less than 20 µM and a Kd [14, 39] of no less than 20 µM. It also gave a Kd [15, 39] of no less than 20 µM, a Kd [16, 39] of no less than 20 µM and a Kd [17, 39] of 0.106 µM. It also gave a Kd [18, 39] of no less than 20 µM, a Kd [19, 39] of no less than 20 µM and a Kd [20, 39] of no less than 20 µM. For the same sequence, the Kd [21, 39] was no less than 20 µM, the Kd [8, 39] was no less than 20 µM and the Kd [22, 39] was no less than 20 µM. For the same sequence, the Kd [12, 39] was no less than 20 µM and the Kd [23, 39] was no less than 20 µM.
RIRFVQNAL gave a Kd ([10]; source organism: Influenza A virus (A/Denver/1957(H1N1))) of 0.0199 µM.
Work on LPLNRAYPL yielded a Kd [10, 40] of 0.0063 µM, a Kd [24] of 0.06 µM and a Kd [11, 40] of no more than 0.0001 µM. For the same sequence, the Kd [8, 40] was 0.0093 µM and the Kd [12, 40] was 2.57 µM.
Sequence ILHRLAPWI has a Kd [3, 40] of 0.0473 µM, a Kd [13, 40] of 0.103 µM and a Kd [15, 40] of no less than 20 µM. It also gave a Kd [16, 40] of no less than 20 µM, a Kd [18, 40] of no less than 20 µM and a Kd [19, 40] of no less than 20 µM. It also gave a Kd [20, 40] of no less than 20 µM, a Kd [25, 40] of no less than 20 µM and a Kd [21, 40] of no less than 20 µM. It also gave a Kd [8, 40] of no less than 20 µM, a Kd [22, 40] of no less than 20 µM and a Kd [12, 40] of no less than 20 µM. It also gave a Kd [23, 40] of no less than 20 µM.
VFTSRIQVI showed a Kd [26] of no less than 20 µM, a Kd [27] of no less than 20 µM and a Kd [28] of no less than 20 µM. The Kd [29] was no less than 20 µM, the Kd [30] was no less than 20 µM and the Kd [31] was no less than 20 µM. For the same sequence, the Kd [32] was no less than 20 µM, the Kd [3, 41] was no less than 20 µM and the Kd [33, 41] was 0.0246 µM. For the same sequence, the Kd [16, 41] was no less than 20 µM, the Kd [19, 41] was no less than 20 µM and the Kd [25, 41] was no less than 20 µM. It also gave a Kd [21, 41] of no less than 20 µM, a Kd [8, 41] of no less than 20 µM and a Kd [22, 41] of no less than 20 µM. It also gave a Kd [12, 41] of no less than 20 µM and a Kd [23, 41] of no less than 20 µM.
Work on LAANFVVAL yielded a Kd [1, 42] of 0.124 µM and a Kd [2, 42] of 0.206 µM.
Work on TLPGCLIIL yielded a Kd [34] of 4.65 µM, a Kd [15, 43] of no less than 20 µM and a Kd [16, 43] of no less than 20 µM. For the same sequence, the Kd [20, 43] was no less than 20 µM, the Kd [25, 43] was no less than 20 µM and the Kd [21, 43] was no less than 20 µM. It also gave a Kd [8, 43] of no less than 20 µM, a Kd [22, 43] of no less than 20 µM and a Kd [12, 43] of no less than 20 µM. It also gave a Kd [23, 43] of no less than 20 µM.
TELPLAYER showed a Kd [3, 44] of no less than 20 µM, a Kd [4, 44] of no less than 20 µM and a Kd [13, 44] of no less than 20 µM. The Kd [14, 44] was no less than 20 µM, the Kd [15, 44] was no less than 20 µM and the Kd [33, 44] was no less than 20 µM. For the same sequence, the Kd [16, 44] was no less than 20 µM, the Kd [20, 44] was no less than 20 µM and the Kd [25, 44] was 0.395 µM. It also gave a Kd [21, 44] of no less than 20 µM, a Kd [8, 44] of no less than 20 µM and a Kd [22, 44] of no less than 20 µM. For the same sequence, the Kd [12, 44] was no less than 20 µM and the Kd [23, 44] was no less than 20 µM.
For MLTNASGHA, the Kd [3, 45] was 0.2 µM, the Kd [13, 45] was 0.438 µM and the Kd [14, 45] was no less than 20 µM. For the same sequence, the Kd [15, 45] was no less than 20 µM, the Kd [33, 45] was no less than 20 µM and the Kd [16, 45] was no less than 20 µM. For the same sequence, the Kd [17, 45] was no less than 20 µM, the Kd [19, 45] was no less than 20 µM and the Kd [20, 45] was no less than 20 µM. It also gave a Kd [35] of no less than 20 µM, a Kd [25, 45] of no less than 20 µM and a Kd [21, 45] of no less than 20 µM. For the same sequence, the Kd [8, 45] was no less than 20 µM, the Kd [22, 45] was no less than 20 µM and the Kd [12, 45] was no less than 20 µM. The Kd [23, 45] was no less than 20 µM.
RLREALCAV was tested, and the Kd ([1]; source organism: Mycobacterium tuberculosis str. Haarlem) was no less than 20 µM.

Reference: the Immune Epitope Database (IEDB)
